Results reported in US11479582B2 (KING FAISAL UNIVERSITY, dated 2022).

Target: SARS-CoV-2 spike (S) protein, expressed from a synthetic S gene (SARS-CoV-2, UniProt P0DTC2)
Experiment: cell-based or functional assay

HVLGDISGINASVVQIQKEIDRLNEVAKNLHESLIYLQE [peptide #121 (mutated HR2 39-mer, 'Highest Affinity')]
IC50, SARS-CoV-2 Spike-mediated cell-cell fusion: 720 nM
IC50, SARS-CoV-2 pseudovirus infection in Calu-3 cells: 160 nM
IC50, SARS-CoV-2 pseudovirus infection in VeroE6: > 10000 nM
IC50, TMPRSS2-dependent plasma membrane pathway in VeroE6-TMPRSS2: < 1000 nM
